The data set is described as follows: yeast display, Sf9 membrane polyspecificity reagent, FACS + sequencing; frameworks hold sequencing errors. The method, boiled down:
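A synthetic nanobody library was expressed on Saccharomyces cerevisiae BJ5465 by galactose induction for 36–48 hours. The library was stained for 1 hour at 4 °C with 10% biotinylated, detergent-solubilized Sf9 membrane reagent and enriched with streptavidin microbeads before FACS. Low and high (top ~1%) gates were set on anti-HA fluorescence for expression and streptavidin fluorescence for reagent binding, and each polyreactivity label reflects the gate of origin.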
As for “QVQIVESGGGLVQAGGSLRLSCAASGRILWDYAMGWYRQATGKEWELVAAIDWSAGSTYYADSVKGRFTISRDTAKNTVYLQMNSLKPEDTAVYYCYIDYTYYYEDDFWGQGTQVTVSS”, the “polyreactivity (PSR sort gate)” value is “low polyreactivity”.

In the case of “QVQIVESGGGLVQAGGSLRLSCAASGRISKFYTMGWYRQAPGKERELVADISYSGGSTYYADSVKGRFTISRDIEKNTVYLQMNSLKPEDTAVYFCSVDGLQRAIDYWGQGTQVTVSS”, the “polyreactivity (PSR sort gate)” value is given as “high polyreactivity”.

As to “QVQIVESGGGLVQAGGSLRLSCAASGRSYAINAMGSYRQAPGKERELDASITTRDSSTYYADSVKGRFTISRDNAKNTVYLHMNSLKPEDTAVYYCAKVKLVTYLYRLFVYGSYYWGQGTLVTVSS”, the “polyreactivity (PSR sort gate)” value is “low polyreactivity”.

“QVQIVESGGGLVQAGGSLRLSCAASGRTFGIYAMGWYRQAPGKERELVDAIRWRDGSTYYADSVKGRFTISRDNAKNTVYLQMTSLKPEDTAVYYCAATSRVYVRGSYWKYGYWGQGTQVTVSS”: the “polyreactivity (PSR sort gate)” value was “high polyreactivity”.

Regarding “QVQIVESGGGLVQAGGSLRLSCAASGRTFQYYTMGWSRQAPGKEREFVAAIRDSGGSTYYADSVKGRFTISRDNAKNTVYLQMNSLKPEDTAVYYCAAYRPRKYDYWGQGTQVTVSS”, the “polyreactivity (PSR sort gate)” value was “high polyreactivity”.

Regarding “QVQIVESGGGLVQAGGSLRLSCAASGRTFRYYTMGWYIQAPGKERELVAVISRSGGSTYYADSVKGRFTISRDNAKNTVYLQMNSLKPEDTAVYYCNAGYWRFIDSYDYWGPGTQVTVSS”, the “polyreactivity (PSR sort gate)” value is reported as “high polyreactivity”.

For “QVQIVESGGGLVQAGGSLRLSCAASGRTFSKYAMGWYRQSTWKERELVASITWSGGTTNYADSVKGRVTISRDNAKNTVYLQMNSLKPEDTAVFYCNAQIASDGFNPGKSDYWGLGTQVTVSS”, the “polyreactivity (PSR sort gate)” value was “low polyreactivity”.

Take “QVQIVESGGGLVQAGGSLRLSCAASGRTFYYNAMGWYRQAPGKERELVAAITWSGGGTYYADSVKGRFTISRDNAKNTVYLQMNSLKPEDTAVYYCAKTPGWTDYDYWGQGTQVTVSS”: the “polyreactivity (PSR sort gate)” value is recorded as “high polyreactivity”.

Take “QVQIVESGGGLVQAGGSLRLSCAASGRTLKFNTMGWYRQAPGKERELVAAISGSGGSTYYADSVKGRFTISRDNAKNTVYLQMNSLKPEDTAVYYCAKYGVLRGYGYDYWGQGTQVTVSS”: the “polyreactivity (PSR sort gate)” value was “high polyreactivity”.

On to “QVQIVESGGGLVQAGGSLRLSCAASGSIFASYTMGWYRQAPGKERELGATIRRTGSTYYADSVKGRFTISRDNAKNTVYLQMNSLKPDDTAVYYCAAGLRRKQGLTSGYEYGGQGTQVTVSS”, for which the “polyreactivity (PSR sort gate)” value is “high polyreactivity”.

For “QVQIVESGGGLVQAGGSLRLSCAASGSIFDGNAMGWYRQAPGKERELVAAITWRGTRTYYADSVKGRFTISRDNAKNTVYLQMNSLKPEDTAVYYCAATSYSTYILGGTRRYDYWGQGTLVTVSS”, the “polyreactivity (PSR sort gate)” value is recorded as “high polyreactivity”.

Consider “QVQIVESGGGLVQAGGSLRLSCAASGSIFDKNAMGWYRQAPGKEREFVAAITWSDGNTYYADSVKGRFTISRDNAKNTVYLQMNSLKREHTAVYYCNADALGVFWDRGGWFDDYWGQGTQVTVSS”, for which the “polyreactivity (PSR sort gate)” value is given as “low polyreactivity”.

On to “QVQIVESGGGLVQAGGSLRLSCAASGSIFGTYAMGRYRQAPGKERELVAAINSGDSTYYADSVKGRFTISRDNAKNTVYLQMNSLKPEDTAVYYCGARETYWSGYFIYYYWGQGTQVNVSS”, for which the “polyreactivity (PSR sort gate)” value is recorded as “high polyreactivity”.

Consider “QVQIVESGGGLVQAGGSLRLSCAASGSIFRRYAMGWYRQEPGKERELVAAISSNGGSTYNADSVKGRFTISRDNAKNTVYLQMNSLKPEDTAVYYCNAPPLYRDEYWGQGTQVSVSS”, for which the “polyreactivity (PSR sort gate)” value is recorded as “high polyreactivity”.

Consider “QVQIVESGGGLVQAGGSLRLSCAASGSIFTFYAMGWYRQAPGKERELVATINRIGGNTYYADSVKGRFTISRDNAKNTVYLQINSLKPEDTAVYYCAAKPTYRGYGYGSWGQGTQVTVSS”, for which the “polyreactivity (PSR sort gate)” value is on record as “low polyreactivity”.

As to “QVQIVESGGGLVQAGGSLRLSCAASGSIFTYYAMGWYRQAPGKERELVAAINWSGGSTYYADSVKGRFTISRDNAKNTVYLQMNSLKPEDTAVYYCATDYYARRHSPRYDYWGQGTQLTVSS”, the “polyreactivity (PSR sort gate)” value is “low polyreactivity”.

Turning to “QVQIVESGGGLVQAGGSLRLSCAASGSIFWFYAMGWSRQAPGKERELVAAITWNGGRTYYADSVKGRFTISRDNAKNTVYLQMNCLKPEDTAVYYCNKVSGYDVDYWGHGTQVTVSS”, the “polyreactivity (PSR sort gate)” value was “high polyreactivity”.

In the case of “QVQIVESGGGLVQAGGSLRLSCAASGSIFWPYTMGWYRQAPGKERELVAAISYSGGRTYYADSVKGRFTISRDNAKNTVYLQMNRLKPEDTAVYYCAAGTYSRGSREDYWGQGTQVTVSS”, the “polyreactivity (PSR sort gate)” value is given as “high polyreactivity”.

“QVQIVESGGGLVQAGGSLRLSCAASGSIFYRNAMGWYRQAPGKERELVAAISSDGSTNYADSVKGRFTISRDNAKNTVYLQMNSLKPEDTAVYYCAAPWTQILDYWGQGTQVTVSS”: the “polyreactivity (PSR sort gate)” value was “low polyreactivity”.

As for “QVQIVESGGGLVQAGGSLRLSCAASGSISVANAMGWYRQAPGKDRELVAAITDSGDDTYYADSVKGRFTISRDIAKNTVYLQMNSLKPEDTAVYYCAVEAWSVPPYDYWGQGTQVTVSS”, the “polyreactivity (PSR sort gate)” value is “low polyreactivity”.

In the case of “QVQIVESGGGLVQAGGSLRLSCAASGSTFDDYVMGWYRQAPGKEREFVAAISTNGGSTYYADSVKGRFTISRDNAKNTVYLQMNSLKPEDTAVYYCAAESQDFYAILGLYDYWGQGTQVTVSS”, the “polyreactivity (PSR sort gate)” value is “low polyreactivity”.

In the case of “QVQIVESGGGLVQAGGSLRLSCAASGSTFDYYAMGWYRQAPGKERELVAGISASGGSTYYADSVKGRFTISRDNAKNTVYLQMNRMKPEDTAVYYCASYYKPPGYDYWGQGTQVTVSS”, the “polyreactivity (PSR sort gate)” value is listed as “low polyreactivity”.

Take “QVQIVESGGGLVQAGGSLRLSCAASGSTFSRYAMGWYRQAPGKERELVAVITKSGGRTYYADSVKGRFRISRDNAKNTVYLQKHSLKAEDTADYYCAAYPNKSQTADGYWGQGTQVTVSS”: the “polyreactivity (PSR sort gate)” value is given as “high polyreactivity”.

As to “QVQIVESGGGLVQAGGSLRLSCAASGSTIIRNAMGWSRQAPRKERELVAAISTSGGRTHYADSVKGRFTISRDNAKNTVYLQMNSLKPEDTAVYYCASRGKGHYYYWGQGTQVTVSS”, the “polyreactivity (PSR sort gate)” value is given as “high polyreactivity”.

Regarding “QVQIVESGGGLVQAGGSLRLSCAASGTTFDAYAMGWYRQAPGKERELVAAITNAGSTNYADSVKGRFTISRDNAKNTVYLQMNSLKPEETAVYYCATDWYHRYLDGRYDYWGQGTQETVSS”, the “polyreactivity (PSR sort gate)” value is listed as “low polyreactivity”.

“QVQIVESGGGLVQAGGSLRLSCAASGTTFRFYAMGWYRQAPGKERELVAAIRRGGSTYYADSVKGRFTISRDNAKNTVYLQMNSLKPEDTAVYFCAAEPGYYSRPDYRVYRLYYWGLGTQVTVSS”: the “polyreactivity (PSR sort gate)” value is recorded as “high polyreactivity”.

Turning to “QVQIVESGGGLVQAGGSLRLSCAASVRTQRYYDMGCYRQAPVKERELVAAISSGGSTYYGDSLKGRFSISRDNAKNTVYLEMNSLKPEDTEVYYCAKRVSNWVSGGGYYYWGQCTQVTVSS”, the “polyreactivity (PSR sort gate)” value was “high polyreactivity”.

In the case of “QVQIVESGGGLVQAGGSLRLSCAAYGSIFVRNVMGWYRQAPGKERELVATIRYRGGSTYYADSVKGRFTISRDNAKNTVYLQMNSLKPEDTAVYYCNARYLWADEYYYWGQGTQVTVSS”, the “polyreactivity (PSR sort gate)” value is “low polyreactivity”.

Consider “QVQIVESGGGLVQAGGSLRLSCAPSGSTFGSNAMGWYRQAPGKERELVAAIRWSGGSTYYADSVKGRFTISRDNAKNTVYLQMNSLKPEDTAVYYCNAVYGRQYRGYNYKYYYWGQGTQVTVSS”, for which the “polyreactivity (PSR sort gate)” value is “high polyreactivity”.

In the case of “QVQIVESGGGLVQAGGSLRLSCGASGRIFYNYALGWYRQAPGKERELVAAISGSGGSTYYADSVKGRFTISRDNAKNTVYLQMNSLKPEDTAVYYCSTSGPQYYSRNFDYWGQGTQVTVSS”, the “polyreactivity (PSR sort gate)” value was “low polyreactivity”.

For the sequence “QVQIVESGGGLVQAGGSLRLSSAASGITFRHYAMGWYRQAPGKERELVAAITSRGGSTYYADSVKGRFTISRDNAKNTVYLQMNSLKPEDTAVYYCAKGTVHSRPDFGRGWYRWDDYWGQGSQVTVSS”, the “polyreactivity (PSR sort gate)” value was “high polyreactivity”.

“QVQIVESGGGLVQAGGSLRLSSASSGRTLRQYAMGWYRPAHWKERDLVAAIRTNGGRTYYADSVMRRFTISRVNSKNTVYLQMNSLKPEDTAVYYCAVYAVVLGVLFDYWGQGTQVTVSS”: the “polyreactivity (PSR sort gate)” value was “high polyreactivity”.

For the sequence “QVQIVESGGGLVQAGGSLRLTCAASGGIFARYTMGWYRQAPGKERELVATITSGGGTNYADSVKGRFTISRDNAKNTVYLQMISLKPEDTAVYYCAASPRAVSYGPDDRQQYDYWGQGSQVTVSS”, the “polyreactivity (PSR sort gate)” value is on record as “low polyreactivity”.

In the case of “QVQIVESGGGLVQAGGSLRVSCAASGITFGNYDMGWYRQAPGKERELVAAITGSGGRTYYADSVKGRFTISRDNEKNTVYLQMNSLKPEDTAVYYCNRRQYGRKKQYDYWGQGTQVTVSS”, the “polyreactivity (PSR sort gate)” value is on record as “high polyreactivity”.

Take “QVQIVESGGGLVQAGGSLSLSCAASGRTISWYTMGWYRQAPGKERELVAGISSSGGSTYYADSVKGRFTISRDNAKNTVYLQLNSLKPEDTADYFCAAGDFRYVDRYGDMEYWGQGTQVTVSS”: the “polyreactivity (PSR sort gate)” value is reported as “low polyreactivity”.

On to “QVQIVESGGGLVQAGGSLSLTCAASGSIITSNDMGWYRQAPGKERELVAAISKSGGRTYYAYSVKGRFTISRENEKNTDYLQMNCLKQEYTAVYYCHAGIYGYGYNPSYDYWGQGTQVTLSS”, for which the “polyreactivity (PSR sort gate)” value is on record as “high polyreactivity”.

For the sequence “QVQIVESGGGLVQARGSLRLSCAAYGRIIYRYAMGWYRQAPGKERELVAAISASGRTYYADSVKGRFTISRDNAKNTVYLQMNSLKPADTAVYYCAKVAAGSLGSWGQGTQVTVSS”, the “polyreactivity (PSR sort gate)” value was “high polyreactivity”.

With “QVQIVESGGGLVQAVGSLRLSCAASGFIFMANAMGWYRQAPGKERELVAAITTGGRTNYADSVKGRFTISRDNAKNTVYLQMNSLKPEDTAVYYCAARYINGWVRSFYYWGQGTQVNVSS”, the “polyreactivity (PSR sort gate)” value was “high polyreactivity”.

For “QVQIVESGGGLVQAVGSLRLSCAASGRIFHYNSMRWYRQAPGKERELVAAITDSTGGSTYYADSVKGRFTISRDNAKNTVYLQMNSLKPEDTAVYYFAAQDYQYSDYQWWFGYWGQGTKVTVSS”, the “polyreactivity (PSR sort gate)” value was “low polyreactivity”.

Turning to “QVQIVESGGRIVQAGGSLRLSCAASGSTFGWYTMGWYRQSPGKESELVATISWRGGTTYYADSVKGRFTISRDNAKNTVYLQMNSLKPEDTAVYYCAARRYRASSRGYGYWGQGTQVTVSS”, the “polyreactivity (PSR sort gate)” value is “high polyreactivity”.

These data come from the nanobody polyreactivity screen of Harvey et al. (2022).
